Laboratory results reported in patent US20200102400A1.
Like-named read-outs stand apart in the source and are kept apart here.

Columns and labels:
[1] = target: FcγRs; experiment: cell-based or functional assay
[2] = target: C1q protein from human serum (human) (UniProt P02745); experiment: FACS, spheroplasts, 10 nM C1q-PE, high-salt buffer (FIG. 3C)
[3] = target: C1q protein from human serum (human) (UniProt P02745); experiment: FACS, 10 nM C1q-PE; reference itself
[4] = target: FcγRIIIa-V158-Streptavidin (tetrameric) (human) (UniProt P08637)
[5] = target: C1q protein from human serum (human) (UniProt P02745); experiment: FACS, spheroplasts, 10 nM C1q-PE
[6] = target: C1q protein from human serum (human) (UniProt P02745); experiment: FACS, cell display, 10 nM C1q-PE
[7] = target: FcγRIIIa-V158-Streptavidin (tetrameric) (human) (UniProt P08637); remark: listed apart in the source
[8] = target: FcγRIIIa-V158-GST (dimeric FcγRIIIaV158) (human) (UniProt P08637)
[9] = target: FcγRIIb-GST (dimeric FcγRIIb) (human) (UniProt P31994)
Sequence of FcγRIIb-GST (dimeric FcγRIIb) (human) (P31994 43-217): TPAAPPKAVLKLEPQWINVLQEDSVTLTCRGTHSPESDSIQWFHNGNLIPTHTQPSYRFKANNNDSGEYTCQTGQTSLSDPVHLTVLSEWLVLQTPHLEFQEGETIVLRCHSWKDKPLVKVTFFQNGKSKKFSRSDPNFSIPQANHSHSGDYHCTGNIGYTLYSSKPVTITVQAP

Sequence of C1q protein from human serum (human) (P02745 23-245, chain 1 of 3): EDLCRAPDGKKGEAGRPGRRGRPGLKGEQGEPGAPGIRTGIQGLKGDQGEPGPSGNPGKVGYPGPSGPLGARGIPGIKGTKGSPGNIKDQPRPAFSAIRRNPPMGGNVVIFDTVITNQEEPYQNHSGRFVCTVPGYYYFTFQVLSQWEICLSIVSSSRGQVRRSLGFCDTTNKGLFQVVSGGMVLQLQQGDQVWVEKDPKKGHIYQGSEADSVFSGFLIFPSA
Sequence of C1q protein from human serum (human) (P02746 28-253, chain 2 of 3, further chain): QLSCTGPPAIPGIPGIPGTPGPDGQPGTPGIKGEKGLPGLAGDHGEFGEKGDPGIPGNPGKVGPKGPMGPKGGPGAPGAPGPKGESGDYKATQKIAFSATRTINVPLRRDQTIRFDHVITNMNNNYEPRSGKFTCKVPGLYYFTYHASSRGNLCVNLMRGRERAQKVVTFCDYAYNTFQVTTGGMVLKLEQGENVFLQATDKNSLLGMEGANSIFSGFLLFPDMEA
Sequence of C1q protein from human serum (human) (P02747 29-245, chain 3 of 3, further chain): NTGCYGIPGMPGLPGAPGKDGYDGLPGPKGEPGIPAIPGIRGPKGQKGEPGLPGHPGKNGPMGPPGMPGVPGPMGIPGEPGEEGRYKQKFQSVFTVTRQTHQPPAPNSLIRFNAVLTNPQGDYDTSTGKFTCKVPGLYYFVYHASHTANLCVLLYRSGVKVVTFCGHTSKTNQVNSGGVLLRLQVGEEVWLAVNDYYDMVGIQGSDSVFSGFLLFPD
Sequence of FcγRIIIa-V158-Streptavidin (tetrameric) (human) (P08637 17-208 F176V): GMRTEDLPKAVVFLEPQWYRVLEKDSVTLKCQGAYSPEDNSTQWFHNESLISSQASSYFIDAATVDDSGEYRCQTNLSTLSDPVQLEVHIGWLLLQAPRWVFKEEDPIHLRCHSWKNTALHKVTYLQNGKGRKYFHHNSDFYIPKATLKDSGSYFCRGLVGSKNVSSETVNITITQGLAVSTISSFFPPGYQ
Sequence of FcγRIIIa-V158-GST (dimeric FcγRIIIaV158) (human) (P08637 17-208 F176V): as above

| ADCC EC50, Raji targets, PBMC [1] | Substance | MFI [2] | Increasing Fold [3] | MFI [4] | MFI [5] | MFI [6] | MFI [7] | MFI [8] | MFI [9] |
| --- | --- | --- | --- | --- | --- | --- | --- | --- | --- |
| 2.11 nM | Rituximab (glycosylated wild-type IgG1) (antibody) | – | – | – | – | – | – | – | – |
| – | wild-type aglycosylated IgG displayed on E. coli spheroplasts (antibody) | 14.9 | 1 fold | 6.44 | 54.7 | 23.5 | 36.6 | 3.8 | 4.5 |
